Assay: soluble on expression in E. coli; label from the status in PepcDB or PDB records

Soluble on expression in E. coli, not soluble:
MGSDKIHHHHHHMILLNKPVAPNLQKLNSYLERVHDTGWYTNFGPLHNELTEKLEEYLGVSNLLLVSNGTLAIQLAAKVFNVKQTITTPFSFVATSSSLLWQGIDLAYSDIERSSLNICPEELEKNWKSNDSYDSLLATHVYGNPCDVQKIDEIAKKYNKKIMYDAAHAFGIKVGNKSVLSFGDASTLSFHATKVFHTVEGGAVIFKDRNHFDEAKSLINFGIQNDGTLGTPGINAKLNEYQAAVGLCLLESIDDIICHRSNLFEIYRKELSNVIELPLWHRDSNYNGAYMPILPSTEVERLKIGEQLKANNIQFRRYFYPSLDKAYLRVKSFNCPVSNYIAENALCLPLHMYMTKEDVLKITATIKEIY
MGSDKIHHHHHHMILLSFDIEEFDVPKEHQVDISMEEQIKVSVEGTTRILDCLERNQVKATFFCTANFALHAPDIIKRIQEGGHEIASHGFYHWTFEVEDLKRSKDQLEEITGTKVYGYRQARMMPVSEKAVYEAGYIYNSSLNPTFIPGRYMRLSTPRTPFIKDRVMQMPASVTPLLRFPLFWLSCHNLPASLYRWLCKYTHRHDGYFVTYFHPWEFYPLNEHPEWKLPFIIRNHAGEGMEKRLDAFILYFRKKNVSFGRFIDYIKLNKDIMK
MGSDKIHHHHHHMIMKFFDREREINEILGILDETPDNIYFIYGPINSGKTTLMMEIINRLKDDKKYRIFYYNLRGVRISSYSDFFDIMFEIREDNKFKQMVKDADVLVEGIKFIEKTAKLFNESIILPSDLAKVILSKQKGFDVFRYLERVFREMNKKGLKPVIIIDELQRLKGLKSNGELIDDLFNFFVRLTKELHITHCFCLSSDSLFIEYVYDRAELRGRADYILVDDFDKETALKFMDFLSEDILGRKLSEDEKELIYSYVGGKPKDVYDVIIKLKLGKELKDILEFMLKEEIQKLKYFLEDVKEDDEELYNKIVDALKIFKENYEIEDIKIPKNIREFLVKKNILFLNPIEGTLKPQSFLVWNAIKKLLNGH
MGSDKIHHHHHHMIMKVVVKVGSNLLVGSSGLRKSYIAELCREVARLKSQGHEISIITSGARAAGFTYLGKGKRTQDLHIKQALCAVGQVQLMKVYENAFDFYGIKIAQILLTRDTFSNRKRYLNLRNTLIGLSEFDVVPIVNENDTVATEEITLGDNDTLAAMFSIAWDADFLVLFTTVDGVIDENGKLVERFDESVKLKDMGKSSWGTGGIRSKIESALMASRCGVKATICSGNDVSNLTRFVKGEPVGTVFEPQGRLKAKKAWIAFLSEPAGKIYVNKGAEEALKSGNSLLPVGVTGVEGTFDVGDVVEIVNEEGELVGRGIVNYSSSDLEKIAGHKSSDLKKILGYEGNKVVVHIDNMWVA
MGSDKIHHHHHHMINPIILPLDKVRNPRDLGSYVGYNGRKIKMHRLLRTGKISNITEHDKKFLLDYGLTKIIDLRSPFECKKAPDSQIPGVEHIDLSISTEDNTKGGKKDITKVFETYRKDQYAGFNMMCDRYRSHVMKEHAQHALHSILEVLANTKDGAIIYHCSEGKDRTGIVTVLILYLLGVDMETIRQDYLYSNYMLDNYRASRDKIMQENGENLCFRANMRILGSVSDAFLDTSLIAIHKNFGSLDNYLKEIIGVTPELRDTLRELYLED
MGSDKIHHHHHHMINPQWLHTFAVLVEKGNFTRTAEAIGITQAAVSQHISRLEEEYGTLFLRRPRQLEITPIGENLLTYVKDVECAQKRLQQKLIHDDAEVGDISLITPGSIGLTLFPLLIELQQAFPALNIRHRFAPDSEIVASVLANEHEIGMVTLKPSDPRIHSTHFTEEPLELVVPACHKQNEWVDLQRLGFISHPDGEAMATRLLSRKYPSNPGIQDIPCKGFTNQISLILEPVAKGLGFTVIPQYARKAFERQQDIYVVECGSQVVDTIWLIHRAEWPLSRRAQKAITFLKGKI
MGSDKIHHHHHHMINQINFKTSHGGSREEGYIDFSASVNPYPPEWTDEMFERAKKISTFYPYYEKLEEELSDLIGEPITITAGITEALYLLGVWMRGRKVIIPKHTYGEYERISRMFGGRVIKGPNDPGKLAEFVERNSFVFFCNPNNPDGKFYREKEMKPLLDAIQDTNSILILDEAFIDFVKKPESPEGENIIRLRTFTKSYGLPGVRVGYVIGFVDAFRSVRMPWSIGSTGVAFLEFLLKDNFKHLRKTLPLIWKEKERIEKELKVKSDANFFIMKVREGIIEKLKENGILVRDCKSFGLPGYIRFSVRRREENDKLINILRKTLNT
MGSDKIHHHHHHMIPPASTLRSRLKMQHLRLLLSIEERGSLRQAADALSLSQPAVTKMLQDMEALLGVTLFERHLRGLRPTRFGMAVTRYANLVFSDLANLHDELVSLETGRIGKVRIGAVMAPTPVLMAEVIRRLKRDHPGLNMTVHVDTSDMLVPMLERDQLDLVLGRVPEGWDASHLTFEQLGDERLAVVVGCDHPLAKRTDPTFGELATYPWILQPRPSPMRALIDRSFEEAGVTAPQSTIETAAILMTTSLLTGSDLVAVVPMAVATFHASMGLLHILPVPLPRKLDPYGIVTRLGRPPSASMTLFVDVLRAVVEEGGQ
MGSDKIHHHHHHMIQMFINLLETIPSLGRHSFQVAFLSAQIAEKMNLDPNVSFLSGLIHDLGLILPYEGKTLLDEIDDTFVIVRDTPGKPLHLHSILGSFITDYVEKLKPISPIVLKHHFPASYLDKTEENLISNIVFISDQVSRYTMINLDVSPRDILIALEDMKSFFFPEVFEACREVLNTEFVQWQLENILAGYDVTDLLDHHVRNCPDCDKKDLIQIGKIVSFIVDTKSEFTTSHTWRVAVFSEKMAEKAGRNSEDLFIAGLYHDIGKISVSYKILEKPAKLSDEEYAIMKKHVYFSYLILLPYKDENWFLPAVRHHERLDGYGYPFRLKGEEMTLEDKIIQVADVFSALLEERPYRPANTVEKALSMVREEVKKKKLSQEAFELLESSLEDFDLSSIEVGREIRKEIRTFVNRVVEKFGDYVL
MGSDKIHHHHHHMIQVPASFDIQGHRGCRGLLPENTIAAFTKALLLGVTTLEFDLVISKDNRVVVSHDTFFHHEITMMVDGEDVTEANEKNFNLYAMNYADIKEIDVGMKTHPRFKSQKKVPAVKPLFRELIETAEKLSAKIQYNGEIKSTVEGDNIDHPNIALFCDLVVAEIKKAHITDRFTLQSFDVRALEYMHSQYPDIKLSYLVETKGTLKKQLEKLSFTPAVYSPDVTLVSKKDIDAAHKLGMRVIPWTVNTKEEIETLISLGVDGIITDYPDLFFEK
MGSDKIHHHHHHMIRKFVNRKRELEVLEKARLFVVHGRRRVGKTALLRKFLENKRYEKDVEGFSQEISSFINAPVRFESSRDAFKFLREQGKLIVILDEFPYLIEADKGIVSEFQEIVDVMLDNSDVTLILCGSSVGMMEREVPSYKSPLYGRAGGILKVQPFRFFDMVEWFGKDFERLLRIYDVTWGIPKYMEFFRTGSDEEIIANFFDPSAFLFNEARLLLLEELRNPSRYMQIIEAITLWKTRLNEIAQYTGIEPKDLPSYLRVLSNLGIIKREVPITERKGKRWVYVIEDEYFRFYHRFVSPHYEEIESLNPEPAIEDFRKNFNAYLGRTFEKVSREFLTRVIKPSKVGRWWHKGEEIDIVALKGEERKALLVEVKWKELSEKEARRILKDLEHKGELIGMEKWKRCYGLIAKKIENKESIKGEGFFLWDLKDFKSEMI
MGSDKIHHHHHHMIRLFEYDSKQAQSLSQVPVHQPSIIRVIHGEKSLLWQDESVLVGQGQLLLIPAGSHISFVNRPFLGRYRAVQLLLPHDLPQGILSSTADWRDPMPVQNVSRAVDLAWNALLQSLSLSLADSVQLHYLAALLLSLPDKRSVNWLYGHTQRSVTQAALALMSVSPSAPWQQEEIADKLHMSTASLRRKLVLEDTSFRQLLVEVRLSHGLAMLQNSGEPLLQVALACGYQSAEKFSLRFKQQFGLTPAAYRRTL
MGSDKIHHHHHHMISNEQYDYLRAHPTFERLTRDSFDQLAKHIRFRKIPKGQIFFYAEDPRDYLFVLYKGYARIEQYDETDSFTYLDYIRQGGAFPFGDMFQDKPYHYTAIAITDLEYFIVPMVLFETLSKINPSQMVYICQKLSKVLRFQELRLRNAMRSKASDRVVQALALLYWDMCQRDQFATLPFEIHIQEISRLAATTRETVSHVLKQLKQDGKIAYSHKQLTYLDIDYFLENLTETH

— the DeepSol protein solubility set
